Data reported in the Immune Epitope Database (IEDB).

What was measured:
HLA-A*30:02 = test: IEDB peptide-MHC binding, purified MHC/competitive/radioactivity; filed as Kd, often an IC50 or EC50 that approximates it; ≥ and ≤ were set here for values at or beyond the usual limits of such assays
HLA-A*01:01 = test: as above
HLA-A*02:02 = test: as above
HLA-A*02:03 = test: as above
HLA-A*02:06 = test: as above
HLA-A*26:01 = test: as above; details: source organism: Dengue virus 1 Brazil/97-11/1997
HLA-A*03:01 = test: as above; details: source organism: Dengue virus 1 Brazil/97-11/1997
HLA-A*30:01 = test: as above
HLA-A*02:01 [1] = test: IEDB peptide-MHC binding, purified MHC/direct/fluorescence; filed as Kd, often an IC50 or EC50 that approximates it; ≥ and ≤ were set here for values at or beyond the usual limits of such assays
HLA-A*69:01 = test: as above
HLA-A*02:01 [2] = test: IEDB peptide-MHC binding, purified MHC/competitive/fluorescence; ≥ and ≤ were set here for values at or beyond the usual limits of such assays
HLA-B*58:01 = test: IEDB peptide-MHC binding, purified MHC/direct/fluorescence; filed as Kd, often an IC50 or EC50 that approximates it; ≥ and ≤ were set here for values at or beyond the usual limits of such assays
HLA-A*23:01 = test: IEDB peptide-MHC binding, purified MHC/competitive/radioactivity; filed as Kd, often an IC50 or EC50 that approximates it; ≥ and ≤ were set here for values at or beyond the usual limits of such assays; details: source organism: Dengue virus 4 Thailand/0348/1991
[3] = source organism: Dengue virus 3 Martinique/1243/1999
[4] = source organism: Dengue virus 1 Brazil/97-11/1997
[5] = source organism: Vaccinia virus WR
[6] = source organism: Bacillus anthracis
[7] = source organism: Dengue virus 4 Philippines/H241/1956
[8] = source organism: Dengue virus 2 Peru/IQT2913/1996
[9] = source organism: Zaire ebolavirus
[10] = source organism: SARS coronavirus Tor2

Q: With VLPEEQDQNY as the sequence, how does the Kd (HLA-A*30:02; [3]) read?
A: 6870 nM

Q: And the Kd (HLA-A*01:01; [3])?
A: 11000 nM

Q: Which Kd (HLA-A*01:01; [4]) does the source give for LTSREVLLL here?
A: 288 nM

Q: For YVGDTSMMVI, which Kd (HLA-A*02:02; [5]) is on record?
A: 408 nM

Q: And the Kd (HLA-A*02:03; [5])?
A: 220 nM

Q: What about the Kd (HLA-A*02:06; [5]) of the same sequence?
A: 324 nM

Q: For ETLEQMQRKH, which Kd (HLA-A*26:01) is on record?
A: 14000 nM

Q: With AIKVLRGFK as the sequence, how does the Kd (HLA-A*03:01) read?
A: 119 nM

Q: And the Kd (HLA-A*30:01; [4])?
A: 501 nM

Q: How did the Kd (HLA-A*30:01; [5]) turn out when KSHAIYWDK was run?
A: 10.5 nM

Q: Which results are given for KMNNDVFFM?
A: Kd (HLA-A*02:01 [1]; [6]): 2.3 nM; Kd (HLA-A*69:01; [6]): 618 nM

Q: How did the Kd (HLA-A*26:01) turn out when ETTKKDLGI was run?
A: ≥ 54700 nM

Q: What does the source list for VIIMAINVFT?
A: Kd (HLA-A*02:02; [5]): 320 nM; Kd (HLA-A*02:03; [5]): 820 nM; Kd (HLA-A*02:06; [5]): 674 nM

Q: Which Kd (HLA-A*02:02; [5]) does the source give for FVATFRDMLL here?
A: 0.697 nM

Q: What about the Kd (HLA-A*02:03; [5]) of the same sequence?
A: 17.6 nM

Q: And the Kd (HLA-A*02:06; [5])?
A: 4.36 nM

Q: Which Kd (HLA-A*02:02; [5]) does the source give for KIQLFSDFTI here?
A: ≥ 70000 nM

Q: What about the Kd (HLA-A*02:03; [5]) of the same sequence?
A: ≥ 70400 nM

Q: What about the Kd (HLA-A*02:06; [5]) of the same sequence?
A: ≥ 69800 nM

Q: What does the source list for SQAKKPEVRI?
A: Kd (HLA-A*02:02; [5]): 10700 nM; Kd (HLA-A*02:03; [5]): 2370 nM; Kd (HLA-A*02:06; [5]): 5860 nM

Q: What does the source list for YVSPTEMVDV?
A: Kd (HLA-A*02:02; [5]): 63.3 nM; Kd (HLA-A*02:03; [5]): 49.8 nM; Kd (HLA-A*02:06; [5]): 5.16 nM

Q: How did the Kd (HLA-A*26:01) turn out when HVTRGAVLMY was run?
A: 233 nM

Q: PTIEDDKIVT was tested. Which Kd (HLA-A*02:02; [5]) did it give?
A: 13800 nM

Q: And the Kd (HLA-A*02:03; [5])?
A: ≥ 20600 nM

Q: And the Kd (HLA-A*02:06; [5])?
A: ≥ 69800 nM

Q: How did the Kd (HLA-A*02:02; [5]) turn out when ATCALVSDCA was run?
A: ≥ 34700 nM

Q: And the Kd (HLA-A*02:03; [5])?
A: ≥ 23400 nM

Q: And the Kd (HLA-A*02:06; [5])?
A: 9140 nM

Q: With RVLSIPPTA as the sequence, how does the Kd (HLA-A*30:01; [7]) read?
A: 118 nM

Q: With LMELPVKTDI as the sequence, how does the Kd (HLA-A*02:02; [5]) read?
A: 1510 nM

Q: What about the Kd (HLA-A*02:03; [5]) of the same sequence?
A: 986 nM

Q: And the Kd (HLA-A*02:06; [5])?
A: 12900 nM

Q: How did the Kd (HLA-A*30:01; [5]) turn out when MTRLPILLL was run?
A: 0.646 nM

Q: Which IC50 (HLA-A*02:01 [2]; source organism: Vaccinia virus Copenhagen) does the source give for LNGAMVEYV here?
A: 29100 nM

Q: With IVQPENLEY as the sequence, how does the Kd (HLA-A*30:02; [8]) read?
A: 110 nM

Q: What about the Kd (HLA-A*01:01; [8]) of the same sequence?
A: 512 nM

Q: How did the Kd (HLA-A*01:01; source organism: Dengue virus 2 Jamaica/1409/1983) turn out when ESEIPNLDII was run?
A: 7190 nM

Q: With HVFFSEYIV as the sequence, how does the Kd (HLA-A*30:01; [5]) read?
A: 883 nM

Q: For STAIELGAW, which Kd (HLA-B*58:01; source organism: Mammarenavirus lassaense) is on record?
A: 13.3 nM

Q: How did the Kd (HLA-A*30:01; [5]) turn out when RTRAINKYS was run?
A: 12.7 nM

Q: What does the source list for GVSGLYIPGT?
A: Kd (HLA-A*02:02; [5]): 140 nM; Kd (HLA-A*02:03; [5]): 2150 nM; Kd (HLA-A*02:06; [5]): 31.7 nM

Q: With CVSNLDISSV as the sequence, how does the Kd (HLA-A*02:02; [5]) read?
A: 51.8 nM

Q: And the Kd (HLA-A*02:03; [5])?
A: 2.3 nM

Q: What about the Kd (HLA-A*02:06; [5]) of the same sequence?
A: 47.9 nM

Q: For SFFLWVIIL, which IC50 (HLA-A*02:01 [2]; [9]) is on record?
A: 14600 nM

Q: How did the IC50 (HLA-A*02:01 [2]; [9]) turn out when ASLFLPKLV was run?
A: 11900 nM

Q: Which Kd (HLA-A*02:02; [5]) does the source give for SILNNPVDT here?
A: ≥ 47100 nM

Q: What about the Kd (HLA-A*02:03; [5]) of the same sequence?
A: ≥ 30600 nM

Q: And the Kd (HLA-A*02:06; [5])?
A: 14200 nM

Q: What does the source list for PMSRLFMDEI?
A: Kd (HLA-A*02:02; [5]): 1930 nM; Kd (HLA-A*02:03; [5]): 726 nM; Kd (HLA-A*02:06; [5]): 4370 nM

Q: With VLTLATGPVL as the sequence, how does the Kd (HLA-A*30:01; [7]) read?
A: 1500 nM

Q: MVMCGGSLYV was tested. Which Kd (HLA-A*02:02; [10]) did it give?
A: 15.1 nM

Q: What about the Kd (HLA-A*02:03; [10]) of the same sequence?
A: 10.3 nM

Q: What about the Kd (HLA-A*02:06; [10]) of the same sequence?
A: 13.2 nM

Q: Which results are given for TVGMSIVCIV?
A: Kd (HLA-A*02:02; [5]): 528 nM; Kd (HLA-A*02:03; [5]): 468 nM; Kd (HLA-A*02:06; [5]): 200 nM

Q: How did the Kd (HLA-B*58:01; source organism: SARS-CoV1) turn out when ILGTVSWNL was run?
A: 804 nM

Q: And the Kd (HLA-A*02:01 [1]; source organism: SARS-CoV1)?
A: 382 nM

Q: What about the Kd (HLA-A*69:01; source organism: SARS-CoV1) of the same sequence?
A: ≥ 22900 nM

Q: With NLLEQLIENI as the sequence, how does the Kd (HLA-A*02:02; [5]) read?
A: 836 nM

Q: And the Kd (HLA-A*02:03; [5])?
A: 1440 nM

Q: What about the Kd (HLA-A*02:06; [5]) of the same sequence?
A: 396 nM

Q: Which Kd (HLA-A*02:02; [5]) does the source give for SIVCIVAAV here?
A: 3.91 nM

Q: What about the Kd (HLA-A*02:03; [5]) of the same sequence?
A: 2.82 nM

Q: What about the Kd (HLA-A*02:06; [5]) of the same sequence?
A: 3.54 nM

Q: With RGWGNGCGLF as the sequence, how does the Kd (HLA-A*30:02; source organism: Dengue virus 4 Thailand/0348/1991) read?
A: 15.4 nM

Q: And the Kd (HLA-A*23:01)?
A: 898 nM

Q: Which results are given for WLRAKRKPAM?
A: Kd (HLA-A*02:02; [5]): 4670 nM; Kd (HLA-A*02:03; [5]): ≥ 20100 nM; Kd (HLA-A*02:06; [5]): 11900 nM

Q: With RIITILQDIV as the sequence, how does the Kd (HLA-A*02:02; [5]) read?
A: 595 nM

Q: What about the Kd (HLA-A*02:03; [5]) of the same sequence?
A: 209 nM

Q: And the Kd (HLA-A*02:06; [5])?
A: 94.8 nM

Q: With AILHNIYRL as the sequence, how does the Kd (HLA-A*02:02; [5]) read?
A: 106 nM

Q: What about the Kd (HLA-A*02:03; [5]) of the same sequence?
A: 814 nM

Q: What about the Kd (HLA-A*02:06; [5]) of the same sequence?
A: 43.8 nM

Q: Which Kd (HLA-A*30:01; [5]) does the source give for LTRYALHGK here?
A: 0.252 nM
